Measurements: article PMC3888030 (Journal of immunology (Baltimore, Md. : 1950), 2013)
Where two headings read alike, the source gives them in different places.

What was measured:
HLA-DR4 = conditions: cited from earlier work
[1] = test system: IVS T cells from vaccinated melanoma patients; format: cell-based, human
[2] = biological target: purified HLA-DR4 (HLA-DRB1*0401) (human); test: radioligand binding

| Molecule | IC50 [2] [nM] | further results |
| --- | --- | --- |
| MBP111–129: self peptide from myelin basic protein (PSESDELQTIQEDSAATSE; UniProt P02686 111-129, looked up, fragment) | – | affinity for HLA-DR4 (HLA-DR4): binds weakly |
| PKYVKQNTLKLAT [HA307–319] | – | Background IFN-γ secretion by T cells stimulated with APC + control peptide ([1]; Patient #2, 1 μM peptide stimulation): 213 pg/mL; Background IFN-γ secretion by T cells stimulated with APC + control peptide ([1]; Patient #2, 10 μM peptide stimulation): 208 pg/mL; Background IFN-γ secretion by T cells stimulated with APC + control peptide ([1]; Patient #4, 1 μM peptide stimulation): 187 pg/mL; Background IFN-γ secretion by T cells stimulated with APC + control peptide ([1]; Patient #4, 10 μM peptide stimulation): 191 pg/mL; Background IFN-γ secretion by T cells stimulated with APC + control peptide ([1]; Patient #5, 1 μM peptide stimulation): 346 pg/mL; Background IFN-γ secretion by T cells stimulated with APC + control peptide ([1]; Patient #5, 10 μM peptide stimulation): 388 pg/mL; affinity for HLA-DR4 (HLA-DR4): high affinity |
| WNRQLYPEWTLAQRLD [gp100 44-59 APL E54L] | 65 | – |
| WNRQLYPEWTTAQRLD [gp100 44-59 APL E54T] | 104 | – |
| WNRQFYPEWTEAQRLD [gp100 44-59 APL L48F] | 280 | – |
| WNRQLYPEWTEGQRLD [gp100 44-59 APL A55G] | 553 | – |
| WNRQLYAEWTEAQRLD [gp100 44-59 APL P50A] | 189 | – |
| WNRQLYPEWTEAARLD [gp100 44-59 APL Q56A] | 276 | – |
| WNRQLYPEATEAQRLD [gp100 44-59 APL W52A] | 372 | – |
| WNRQLYPEWVEAQRLD [gp100 44-59 APL T53V] | 489 | – |
| WNRQLYPAWTEAQRLD [gp100 44-59 APL E51A] | 199 | – |
